Data: patent US6950754
One block for each binder: values may come before it.

Assays:
pda8d [1] = assay: sedimentation equilibrium, monomer-dimer-tetramer model; monomer-to-dimer self-association
pda8d [2] = assay: sedimentation equilibrium, monomer-dimer-tetramer model; dimer-to-tetramer self-association
6B = assay: size exclusion chromatography, self-association
6C = assay: size exclusion chromatography, self-association
6A = assay: size exclusion chromatography, self-association
6F = assay: size exclusion chromatography, self-association
6E = assay: size exclusion chromatography, self-association
6D = assay: size exclusion chromatography, self-association

Kd (pda8d [1]): 500 to 1500 µM | Kd (pda8d [2]): > 4000 µM
Binder: KPYTARIKGRTFSNEKELRDFLETFTGR (modifications not checked) [pda8d]

oligomerization state (N) (6B): 2
Binder: RMEKLEQKVKELLRKNERLEEEVERLKQLVGER (modifications not checked) [6B]

oligomerization state (N) (6C): 2
Binder: RMARLEAKVAALLAKNRRLEREVARLKALVGER (modifications not checked) [6C]

oligomerization state (N) (6A): 2
Binder: RMEKLEDKVRELLRKNRRLEEEVRRLKELVGER (modifications not checked) [6A]

oligomerization state (N) (6F): 4
Binder: RMAALEAKVAALLAKNAALEAEVAALKALVGER (modifications not checked) [6F]

oligomerization state (N) (6E): 2
Binder: RMNTLERKVAKLLSKNANLEHEVNTLKQLVGER (modifications not checked) [6E]

oligomerization state (N) (6D): 2
Binder: RMRELEEKVRRLLRKNEDLEREVKRLKELVGER (modifications not checked) [6D]
